Test results from the supplement of paper PMC10724198.
± gives the standard deviation of the averaged measurements.

tested on: Saccharomyces cerevisiae; assay: protein stability index of tFT-peptide fusion (C-terminal peptide) (PSI (0-1 scale)); higher = more stable (slower turnover); settings: genetic background: doa10 deletion; temperature: 30 C
Procedure: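 MPS profiling in S. cerevisiae of the tFT-X12 degron library: putative degron peptides plus stable controls, 12 aa, fused to the C-terminus of a sfGFP-mCherry timer. Cells are FACS-sorted into 8 mCherry/sfGFP bins and deep-sequenced. PSI runs from 0 (unstable) to 1 (stable). Backgrounds are wild type, das1Δ and doa10Δ at 30 °C, and wild type, das1Δ, cdc34-1 and cdc53-1 at 37 °C; 2-3 technical replicates each.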
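Also: PSI is a weighted mean of sequencing reads over stability bins, variants kept only with over 10 reads, mCherry proximal and sfGFP distal, peptide attached via GGGS linker.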

Sequence | protein stability index
HINRTIWARYQV | 0.156 ± 0.019
HLGNTMIKKLIG | 0.405 ± 0.033
HLYPFPSLHFAF | 0.683 ± 0.025
HNQDKNVKYKIG | 0.248 ± 0.006
HRDVISVVRNMS | 0.246 ± 0.022
HRHCVSSYQKVS | 0.242 ± 0.0074
HRNILSIIIKNL | 0.0819 ± 0.039
ICTHPCLRLRLN | 0.0875 ± 0.018
IDLISRVTVVAR | 0.2236 ± 0.0022
IDLVAFCTIFAL | 0.295 ± 0.0078
IERGLMLTLCVH | 0.115 ± 0.013
IERLRLRTRIIC | 0.127 ± 0.015
IFIVLDFRCVSS | 0.243 ± 0.011
IFLLFPFSWRIF | 0.364 ± 0.027
IFLLLRRIIALS | 0.0418 ± 0.017
IFPSRSLLAASA | 0.317 ± 0.016
IFSFRWVLPFWL | 0.2407 ± 0.00051
IHCLSIVVHGLS | 0.48 ± 0.016
IHIFIIFRVQWK | 0.163 ± 0.0023
IHRSPLTLPLLV | 0.406 ± 0.014
IIFCVRVVGGDL | 0.332 ± 0.0066
IIIRVTILCEQF | 0.113 ± 0.0089
IILAIRLLVDTL | 0.12 ± 0.0039
IILRPQYVHYFL | 0.482 ± 0.023
IIVLNIGSVIFC | 0.387 ± 0.0076
IKSLLGCWHKHY | 0.279 ± 0.028

Sequence | protein stability index
ILCVEFFVSVSV | 0.136 ± 0.01
ILFVCVCVLHVG | 0.121 ± 0.013
INKRDARIHLLM | 0.32 ± 0.034
IPHLNCCCCLVR | 0.272 ± 0.0053
IRDGPWKRVLVV | 0.125 ± 0.0086
IRVLACFLFAVS | 0.095 ± 0.0081
IVFGWGVEWGRL | 0.691 ± 0.038
IVLCVFTVDSDF | 0.266 ± 0.006
IVSFRLDLSLAV | 0.448 ± 0.014
IVWVSSFVCRSV | 0.447 ± 0.015
IWVVIISDSRVG | 0.247 ± 0.019
IWVWMLSVWLGG | 0.273 ± 0.021
IYFFVLRLRLCG | 0.16 ± 0.0036
KIHILVVQIATR | 0.0346 ± 0.0032
KKNITRLKNKMT | 0.212 ± 0.045
KLLISLTWFCVL | 0.165 ± 0.0032
KLRMGRYIVRII | 0.152 ± 0.024
KVFWRPAWVAEV | 0.237 ± 0.011
LAVFSSPELSFP | 0.66 ± 0.034
LCFTSVFTLFIC | 0.0848 ± 0.017
LCLLPVCLWDVG | 0.453 ± 0.0074
LCSCAVVICCSL | 0.274 ± 0.0047
LCSVWVGIVLLC | 0.0996 ± 0.0034
LDLSSLRCRYLL | 0.185 ± 0.011
LDTTSRSRAKIS | 0.0782 ± 0.032
LFFGLCFVFFGF | 0.407 ± 0.015

Sequence | protein stability index
LFFLSASFFFFF | 0.222 ± 0.0092
LFFSPRRLSPPT | 0.688 ± 0.019
LFIVTFIPVLFS | 0.41 ± 0.0081
LFMLHFLAVLRY | 0.337 ± 0.017
LFSFVCLVFFLW | 0.306 ± 0.032
LFSPLKGILSVM | 0.2641 ± 0.00021
LFTTYVFLVFFQ | 0.2692 ± 0.0019
LFVFTYPFLSWL | 0.552 ± 0.028
LFVMVSVSGLVV | 0.145 ± 0.0021
LFVVHCFLSVSS | 0.0415 ± 0.0025
LFWFRGTIVTPR | 0.635 ± 0.019
LGCFGSSFVFCC | 0.138 ± 0.0034
LGRVSAKFFCVL | 0.13 ± 0.015
LGVCLFFVRCWS | 0.159 ± 0.025
LIFRLCVCGVFW | 0.278 ± 0.017
LILRVLFLFEPC | 0.395 ± 0.022
LIRLCVAPMVCR | 0.32 ± 0.005
LKKTLNGRRKMI | 0.239 ± 0.063
LLASFWKFIVNI | 0.139 ± 0.012
LLAWLHTVQRVG | 0.226 ± 0.0046
LLFLVCFFPSIS | 0.304 ± 0.0092
LLFYSYFFFVLY | 0.312 ± 0.023
LLGGRVLWAWRV | 0.155 ± 0.026
LLLLFPSPLFIR | 0.553 ± 0.024
LLLRQVFSLGVF | 0.104 ± 0.018
LLLVSLAVPLSL | 0.451 ± 0.03

same assay, conditions: genetic background: wild type; temperature: 30 C

Sequence | protein stability index
HINRTIWARYQV | 0.174 ± 0.034
HLGNTMIKKLIG | 0.459 ± 0.064
HLYPFPSLHFAF | 0.688 ± 0.015
HNQDKNVKYKIG | 0.33 ± 0.039
HRDVISVVRNMS | 0.333 ± 0.022
HRHCVSSYQKVS | 0.285 ± 0.027
HRNILSIIIKNL | 0.0771 ± 0.015
ICTHPCLRLRLN | 0.0887 ± 0.016
IDLISRVTVVAR | 0.288 ± 0.029
IDLVAFCTIFAL | 0.33 ± 0.02
IERGLMLTLCVH | 0.156 ± 0.024
IERLRLRTRIIC | 0.131 ± 0.036
IFIVLDFRCVSS | 0.242 ± 0.043
IFLLFPFSWRIF | 0.376 ± 0.033
IFLLLRRIIALS | 0.0337 ± 0.0068
IFPSRSLLAASA | 0.339 ± 0.025
IFSFRWVLPFWL | 0.256 ± 0.04
IHCLSIVVHGLS | 0.475 ± 0.019
IHIFIIFRVQWK | 0.156 ± 0.05
IHRSPLTLPLLV | 0.435 ± 0.019
IIFCVRVVGGDL | 0.38 ± 0.018
IIIRVTILCEQF | 0.137 ± 0.0053
IILAIRLLVDTL | 0.132 ± 0.025
IILRPQYVHYFL | 0.484 ± 0.025
IIVLNIGSVIFC | 0.4057 ± 0.0017
IKSLLGCWHKHY | 0.303 ± 0.057

Sequence | protein stability index
ILCVEFFVSVSV | 0.16 ± 0.0059
ILFVCVCVLHVG | 0.141 ± 0.019
INKRDARIHLLM | 0.382 ± 0.029
IPHLNCCCCLVR | 0.328 ± 0.02
IRDGPWKRVLVV | 0.157 ± 0.015
IRVLACFLFAVS | 0.12 ± 0.022
IVFGWGVEWGRL | 0.701 ± 0.021
IVLCVFTVDSDF | 0.291 ± 0.021
IVSFRLDLSLAV | 0.458 ± 0.02
IVWVSSFVCRSV | 0.4257 ± 0.003
IWVVIISDSRVG | 0.342 ± 0.094
IWVWMLSVWLGG | 0.288 ± 0.017
IYFFVLRLRLCG | 0.162 ± 0.015
KIHILVVQIATR | 0.0319 ± 0.013
KKNITRLKNKMT | 0.199 ± 0.093
KLLISLTWFCVL | 0.192 ± 0.028
KLRMGRYIVRII | 0.135 ± 0.019
KVFWRPAWVAEV | 0.28 ± 0.034
LAVFSSPELSFP | 0.676 ± 0.0088
LCFTSVFTLFIC | 0.0664 ± 0.0089
LCLLPVCLWDVG | 0.439 ± 0.017
LCSCAVVICCSL | 0.309 ± 0.0072
LCSVWVGIVLLC | 0.0964 ± 0.013
LDLSSLRCRYLL | 0.214 ± 0.014
LDTTSRSRAKIS | 0.0968 ± 0.048
LFFGLCFVFFGF | 0.366 ± 0.013

Sequence | protein stability index
LFFLSASFFFFF | 0.207 ± 0.033
LFFSPRRLSPPT | 0.695 ± 0.015
LFIVTFIPVLFS | 0.384 ± 0.041
LFMLHFLAVLRY | 0.242 ± 0.027
LFSFVCLVFFLW | 0.27 ± 0.026
LFSPLKGILSVM | 0.316 ± 0.027
LFTTYVFLVFFQ | 0.29 ± 0.018
LFVFTYPFLSWL | 0.514 ± 0.016
LFVMVSVSGLVV | 0.16 ± 0.026
LFVVHCFLSVSS | 0.0374 ± 0.017
LFWFRGTIVTPR | 0.6335 ± 0.0044
LGCFGSSFVFCC | 0.155 ± 0.017
LGRVSAKFFCVL | 0.134 ± 0.022
LGVCLFFVRCWS | 0.184 ± 0.033
LIFRLCVCGVFW | 0.271 ± 0.032
LILRVLFLFEPC | 0.368 ± 0.031
LIRLCVAPMVCR | 0.349 ± 0.02
LKKTLNGRRKMI | 0.282 ± 0.036
LLASFWKFIVNI | 0.166 ± 0.012
LLAWLHTVQRVG | 0.271 ± 0.023
LLFLVCFFPSIS | 0.313 ± 0.043
LLFYSYFFFVLY | 0.213 ± 0.0032
LLGGRVLWAWRV | 0.199 ± 0.022
LLLLFPSPLFIR | 0.216 ± 0.019
LLLRQVFSLGVF | 0.142 ± 0.014
LLLVSLAVPLSL | 0.459 ± 0.02
